Results from patent publication US7262177B2, “Conjugates of glycosylated/galactosylated peptide, bifunctional linker, and nucleotidic monomers/polymers, and related compositions and methods of use” (priority 2000, dated 2007).
Values joined by “and” are separate entries in the source; they are usually repeats but may differ in a detail not shown here. Equal entries are not always repeated. Where two headings read alike, the source gives them in different places.

What was measured:
[1] = test system: Hep G2 human hepatoma xenografts; test: Bioefficacy against human hepatoma (Hep G2) xenografts in nude mice; type: in vivo, CD-1 nude mice
Source text: Xenotransplanted tumors have been previously shown to be responsive to 5FU chemotherapy as assayed by direct physical measurement of the tumor (Houghton et al., Biochem. Pharmacol., 36, 1285-1289 (1987)), histological changes and biochemical measurements, such as alpha-fetoprotein (AFP) levels (Lemoine et al., Pathol. Biol. (Paris), 47, 903-910 (1999)) and thymidylate synthase levels (Peters et al., J. Clin Oncol., 12, 2035-2042 (1994)). The xenograft tumors in nude mice are a widely used model for tumor studies that allows for direct measurement of the growth of human tumors. Male CD-1 nude mice (6-8 weeks old, 20-22 g in weight) were used for these bioefficacy studies. An injection of 10^8 Hep G2 cells was made subcutaneously into the subcapsular region of each mouse. Mice were observed daily for tumor formation. After tumors emerged, they were measured twice a week in two dimensions with sliding calipers. When the tumors reached a weight of 100 mg in weight as determined by the formula: [(weight, mg)=(length (mm)×width (mm))^2/2], treatment was initiated (Geran et al., Cancer Chemother. Rep., 3, 51-61 (1972)). Initially, mice were treated with 10 mg/kg dose once/week for 8 weeks. Subsequently, separate cohorts of mice were treated with 15 mg/kg weekly for 8 weeks and finally 10 mg/kg twice weekly for 8 weeks. The impact of treatment upon tumor growth was judged by direct measurement as described above. In addition, tumor progression was tracked by serological measurements, such as AFP levels. AFP levels were assayed weekly following each injection. Blood was taken retro-orbitally from each mouse. AFP levels were assayed immunochemically, using kits supplied by Abbott Laboratories (Waukegan, Ill.) and based on the methods of Wang et al. (Cancer Res., 50, 869s-872s (1990)). Measurements of AFP levels were intended to complement direct physical measurement as an indicator of tumor progression. Generally, serum AFP levels behave as if they reflect tumor mass. However, it should be noted that moderately raised AFP levels have been found in some patients with uncomplicated liver disease. Despite these false positives, serum AFP levels have been successfully used to monitor response to therapy (Johnson, J. Gastroent Hepatol., 14 (Suppl.), s32-s36 (1999)) especially in the tumor-bearing nude mice, where the human tumor is the only source of human AFP. Results from such assays provide an early indication of HCC potential before it is manifested as physical tumor growth. The data generated by the above experiments should aid in the derivation of starting doses for larger mammal testing and subsequent clinical studies.

Hep G2 cells = test: Inhibition of Hep G2 cellular proliferation (cell counting), 1-mer conjugates; type: cell-based, human
Protocol: Hep G2 cells were seeded into a 48-well plate in RPMI supplemented with 10% FCS at a density of 5×10^4 cells/well. Cells were then allowed to incubate at 37° C., 95% RH, 5% CO2 for 24 hrs. After this incubation period, the maintainence medium was aspirated and cells were treated with various concentrations of neoglycoconjugate in 200 μl of RPMI supplemented with 10% FCS. Control wells were treated with 200 μl of RPMI+10% FCS alone. At 0, 24, 48, 72 and 96 hrs, six wells for each condition were washed twice with 0.5 ml of DPBS and treated with 0.5 ml of trypsin (0.25%; prepared in HBSS with 1.0 mM EDTA). Cell number for each condition were determined a using a Coulter electronic cell counter. In all cases, the extent of inhibition of proliferation increased as a function of time. […] Therefore, the type of linkage that conjugates the nucleotide analog to YEE(ahGalNAc)3 influences the ability to inhibit proliferation.

TSU carcinoma cells = test: Viability of TSU carcinoma cells; type: cell-based, human; settings: TSU carcinoma cells treated with conjugate
[2] = Serum stability of po 1-mer conjugate, HPLC method (b), column 2; type: in vitro ADME; settings: 37° C.; for Average Peak area / Trial Peak area: human serum
Protocol: Studies were carried out at physiological conditions. The analyses were accomplished using reversed-phase HPLC and PAGE methods. The raw data are presented in table format (Tables 1, 2 and 3). The serum half-life calculated is t1/2=1/k (0.693), derived from the [A]=[A0]e^−kt, where [A0] is the original amount of substrate, [A] is the measured substrate level, t is time (min), and k is the first-order rate constant.
(b) Reaction Conditions: 100 μl of human serum were added to 20 nmoles of HPLc purified po 1-mer Conjugate and incubated at 37° C. for allotted time periods (0 min, 15 min, 60 min, 120 min, 240 min). HPLC gradient: 100% Buffer A (0.05M NaxPO4 (pH 5.8) in 2% CH3CN) for 5 min, then 2% CH3CN to 50% CH3CN over the next 20 min. Column 2: flow 4.7 ml/min, Rainin Semi-Preparative C18 reversed-phase column (10 mm i.d.×250 mm L) (Table 2).

[3] = 10 mg/kg twice weekly, after 3 weeks
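Wherever % injected dose in LIVER is given: male CD-1 mice given radiolabeled test agent intravenously, organs removed at each time point and dissolved, radioactivity per organ measured by scintillation counting with efficiency correction.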

## CC(=O)N[C@H]1[C@H](OCCCCCCNC(=O)CC[C@H](NC(=O)CC[C@H](NC(=O)[C@H](Cc2ccc(O)cc2)NC(=O)C2CCC(CN3C(=O)CC(SCCCCCCOP(=O)(O)OC[C@H]4O[C@@H](n5cc(F)c(=O)[nH]c5=O)C[C@@H]4O)C3=O)CC2)C(=O)NCCCCCCO[C@@H]2O[C@H](CO)[C@H](O)[C@H](O)[C@H]2NC(C)=O)C(=O)NCCCCCCO[C@@H]2O[C@H](CO)[C@H](O)[C@H](O)[C@H]2NC(C)=O)O[C@H](CO)[C@H](O)[C@@H]1O (stereo partly drawn) [po 1-mer, YEE(ahGalNAc)3-SMCC-poFU]
15 MIN after tail vein i.v.
  % injected dose in LIVER: Fifty-seven
60 MIN after tail vein i.v.
  % injected dose in LIVER: 25%
480 MIN after tail vein i.v.
  % injected dose in LIVER: virtually no
[1]; [3]
  body weight: moderate reduction in body weight
  tumor progression: significant reduction in tumor progression
[1]; 10 mg/kg twice weekly, after 6 weeks
  tumors: beyond detection
[1]; 10 mg/kg weekly for 8 weeks
  effect on tumor growth: mild inhibition of tumor growth
[1]; 10 mg/kg weekly, after 8 weeks
  histological analysis of tumors: reduced mitotic index and increased amount of necrotic tissue
[1]; 10 mg/kg weekly, at 8 weeks (saline control about 15 g)
  average tumor weight: about 7 g
[1]; 15 mg/kg weekly
  body weight (clinical toxicity): steady weight gain equivalent to that of a non-tumor bearing mice
[1]; 15 mg/kg weekly, after 2 additional injections (7)
  tumor burden: tumor burden was eradicated in one mouse and the tumor size was reduced in the others
[1]; 15 mg/kg weekly, after 5 injections
  tumor progression: almost static
[1]; 15 mg/kg weekly, after treatment
  histological analysis of tumor: very low mitotic index and extensive necrosis
Hep G2 cells; 1 μM, compared to untreated control, listed as po-linked conjugate
  inhibition of proliferation: 64%
Hep G2 cells; in vitro proliferation of Hep G2 cells
  more active than the ps-linked conjugate: approximately 30%
TSU carcinoma cells
  viability of cells: not affected
[2]; 0 min
  Average Peak area: 13.57
[2]; 0 min, listed as po 1-mer Conjugate
  Trial Peak area: 13.07 and 12.68 and 14.97
[2]; 15 min
  Average Peak area: 14.86
  Trial Peak area: 14.86
[2]; 60 min
  Average Peak area: 14.22
  Trial Peak area: 14.22
[2]; 120 min
  Average Peak area: 11.96
  Trial Peak area: 11.96
[2]; 240 min
  Average Peak area: 9.727
  Trial Peak area: 9.727
[2]; human, serum, HPLC (b), read-out: serum t1/2
  half-life at 200 µM: 6.78 h
